B1: CM29 recombinant plasma mAb (subject P3, Lin.1) (antibody, V domains shown)
VH: QVQLVESGGGVVQPGRSLRLSCAASGFTLSKYGMHWVRQAPDKGLEWVALMSYDGSIKYYGDSVKGRFTVSRDSSKNTLYLQMNNLRDDDTAVYFCARGAMAGNSSFDHWGQGTLVTVSS
VL: not shown
B2: CM30 recombinant plasma mAb (subject P3, Lin.2) (antibody, V domains shown)
VH: QVQLVESGGGLVKPGGSLRLSCAASGFTFSDYYMSWIRQAPGKGLEWVSSIDGSTSYTKYADSVKGRFTISRDNAKNSLYLQMNSLRAEDTAVYYCARVGPAVAGSPFDSWGQGTLVTVSS
VL: EIVLTQSPATLSLSPGERATLSCRASQSVSTYLAWYQQKPGQAPRLLIFDASNRATGIPARFSGSGSGTDFTLTISSLEPEDFAVYYCQQRSNWLFSFGPGTKVDIK
B3: CM31 recombinant plasma mAb (subject P3, Lin.3) (antibody, V domains shown)
VH: QVTLKESGPTLVKPTQTLTLTCTVSGFSLSTNGVGVAWVRQPPGKALEWLGLIYWDDAQRYGPSLKSRLTITKDTSKNQVVLTLTNMDPVDTGTYYCSHVWVNSTHRQIDYWGQGTLVTVSS
VL: QPVLTQPPSSSASPGESARLTCTLPSDFNVGSYNIYWYQKRPGSPPRYLLYYYSDSDKGQGSGVPSRFSGSKDASANTGILLISGLQSEDEADYYCMIWPINGVVFGGGTKLTVL
B4: CM32 recombinant plasma mAb (subject P3, Lin.4) (antibody, V domains shown)
VH: QVQLVQSGPEVKKPGASVKVSCQTSGYSFSDHYLHWVRQTPGQGFEWMGWIKPKSGATNSADNFQDRVTMTADASVNTAYMELSSLRPDDTAVYYCARGHRIPSAISDKYDFWGQGTLVTVSS
VL: QSVLTQPASVSASPGQSITISCTGTSSDVGGYDYVSWYQHHPDNAPKLLIFEVSNRPSGVSNRFSGSKSGNAASLTISGLLAEDEADYFCTSYSSGRTPYVFGTGTKVTVL

Molecular target: SARS-CoV-2 spike ectodomain, HexaPro variant (SARS-CoV-2, Wuhan-Hu-1 (MN908947), stabilised)
Experiment: BLI

| Binder | Kd [nM] |
| --- | --- |
| B1 | 6.6 |
| B2 | 0.8 |
| B3 | 37.7 |
| B4 | 6 |
